Source: PMC6032869 (Allergy, 2018)

What was measured:
[1] = biological target: T1, Aln g 1, Bet v 1-related allergen from alder (Alnus glutinosa, UniProt P38948); assay: SPR; Biacore 2000, 25°C; allergens amine-coupled to CM5 chip; reference cell BSA; H3-1 in HBS-EP pH 7.4 injected in twofold increasing concentrations at 30 uL/min; 1:1 interaction model; conditions: both partners purified
T1 construct: Aln g 1, alder pollen allergen, Swissprot P38948; source: recombinant; materials described in Data S1

[2] = biological target: T2, recombinant Bet v 1, major birch pollen allergen (Betula pendula (B. verrucosa), UniProt P15494); assay: as above; conditions: both partners purified
T2 construct: Bet v 1, major birch pollen allergen, Swissprot P15494; also called rBet v 1; source: recombinant; materials described in Data S1

[3] = biological target: T3, Cor a 1, Bet v 1-related allergen from hazel (Corylus avellana, UniProt Q08407); assay: as above; conditions: both partners purified
T3 construct: Cor a 1, hazel allergen, Swissprot Q08407; source: recombinant; materials described in Data S1

[4] = biological target: T4, Mal d 1, Bet v 1-related allergen from apple (Malus domestica, UniProt Q9SYW3); assay: as above; conditions: both partners purified
T4 construct: Mal d 1, apple allergen, Swissprot Q9SYW3; source: recombinant; materials described in Data S1
T4 sequence (Q9SYW3 entry or part of it): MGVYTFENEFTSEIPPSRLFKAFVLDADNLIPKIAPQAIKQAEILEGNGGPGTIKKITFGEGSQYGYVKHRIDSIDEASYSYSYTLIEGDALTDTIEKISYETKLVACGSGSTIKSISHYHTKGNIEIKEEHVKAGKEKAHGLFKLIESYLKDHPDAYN

[5] = biological target: T5, bovine serum albumin (Bos taurus, UniProt P02769); assay: ELISA; allergens, fragments, peptides or BSA coated at 4 ug/mL in 1xPBS; blocked with 1xPBS/3% BSA; 1 ug/mL H3-1 added; bound ScFv traced with anti-E Tag antibody; conditions: both partners purified
T5 construct: bovine serum albumin, control protein; also called BSA
T5 sequence (P02769 25-607): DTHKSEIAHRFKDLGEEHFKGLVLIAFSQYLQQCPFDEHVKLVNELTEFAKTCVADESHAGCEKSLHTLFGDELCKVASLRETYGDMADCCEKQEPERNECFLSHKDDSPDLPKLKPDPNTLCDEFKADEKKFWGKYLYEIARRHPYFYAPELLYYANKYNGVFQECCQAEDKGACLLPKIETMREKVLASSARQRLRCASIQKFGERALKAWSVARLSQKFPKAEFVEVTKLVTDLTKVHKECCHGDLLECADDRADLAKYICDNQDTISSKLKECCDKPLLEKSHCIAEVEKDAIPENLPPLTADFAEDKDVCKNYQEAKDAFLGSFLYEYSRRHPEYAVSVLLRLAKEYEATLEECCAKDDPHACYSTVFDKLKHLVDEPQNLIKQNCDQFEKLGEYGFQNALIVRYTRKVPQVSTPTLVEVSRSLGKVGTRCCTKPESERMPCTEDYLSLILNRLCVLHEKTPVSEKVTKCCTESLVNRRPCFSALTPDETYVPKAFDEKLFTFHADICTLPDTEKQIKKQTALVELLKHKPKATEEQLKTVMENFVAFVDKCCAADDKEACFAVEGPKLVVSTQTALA

[6] = biological target: T6, synthetic Bet v 1-derived peptide 5 (aa 130-160) (Betula pendula, UniProt P15494); assay: as above; conditions: both partners purified
T6 construct: Bet v 1, birch, Swissprot P15494, C-terminal peptide aa 130-160; also called C-terminal peptide 5; source: synthetic peptide
T6 chain: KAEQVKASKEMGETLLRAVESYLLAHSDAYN

[7] = biological target: T2, recombinant Bet v 1, major birch pollen …; assay: cell-based or functional assay
[8] = biological target: T1, Aln g 1, Bet v 1-related allergen from …; assay: ELISA; inhibition ELISA: plate-bound allergen (1 ug/mL) pre-incubated with 20 ug/mL H3-1 or control ScFv, then sera of birch pollen-allergic patients diluted 1:5; bound IgE detected; % reduction against control ScFv; conditions: both partners purified
Target sequence in this assay (P38948 whole entry, looked up): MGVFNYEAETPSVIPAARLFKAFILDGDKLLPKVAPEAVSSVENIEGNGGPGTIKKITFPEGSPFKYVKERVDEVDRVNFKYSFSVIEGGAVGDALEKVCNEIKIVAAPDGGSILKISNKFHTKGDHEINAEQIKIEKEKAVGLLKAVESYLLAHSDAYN

[9] = biological target: T3, Cor a 1, Bet v 1-related allergen from …; assay: as above; conditions: both partners purified
Target sequence in this assay (Q08407 whole entry, looked up): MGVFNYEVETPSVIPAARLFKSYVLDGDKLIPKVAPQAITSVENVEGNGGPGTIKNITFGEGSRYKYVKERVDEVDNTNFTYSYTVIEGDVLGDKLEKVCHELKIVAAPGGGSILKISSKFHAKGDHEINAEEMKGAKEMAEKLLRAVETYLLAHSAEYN

[10] = biological target: T4, Mal d 1, Bet v 1-related allergen from …; assay: as above; conditions: both partners purified
[11] = biological target: T1, Aln g 1, Bet v 1-related allergen from …; assay: as above; conditions: both partners purified; remark: listed apart in the source
Target sequence in this assay (P38948 whole entry, looked up): as the sequence (P38948 whole entry, looked up) above

[12] = biological target: T2, recombinant Bet v 1, major birch pollen …; assay: as above; conditions: both partners purified
[13] = biological target: T3, Cor a 1, Bet v 1-related allergen from …; assay: as above; conditions: both partners purified; remark: listed apart in the source
Target sequence in this assay (Q08407 whole entry, looked up): as the sequence (Q08407 whole entry, looked up) above

[14] = biological target: T4, Mal d 1, Bet v 1-related allergen from …; assay: as above; conditions: both partners purified; remark: listed apart in the source

B1: Bet v 1-specific IgG-derived ScFv H3-1 (scFv, V domains shown)
VH: QVQLVQSGAEVKKPGSSVKVSCKASGGTFSSYAISWVRQAPGQGLEWMGRIIPILGIVNYAQKFQGRVTITADKSTSTAYMELSSLRSEDTAVYYCAREPLGYCSGGSCYPLHNGMDVWGQGTTVTVSS
VL: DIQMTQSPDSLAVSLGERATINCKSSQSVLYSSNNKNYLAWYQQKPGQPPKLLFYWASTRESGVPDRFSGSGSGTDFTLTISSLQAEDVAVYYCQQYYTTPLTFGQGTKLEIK
notes: VH of H3-1 (H3-1_HV); (Gly4Ser)3 linker; V kappa of H3-1 (H3-1_KV); Cloned in phagemid pCANTAB 5E; The E tag is named for the direct ELISA (detection with anti-E Tag antibody); A form with a C-terminal His tag was also constructed; also called ScFv (clone H3-1); H3-1 ScFv; source: also tested as soluble ScFv after conversion of phage clones; not shown: E tag, C-terminal, kept
[1]
  Kd: 2.96 nM
  koff: 0.00112 s⁻¹
  kon: 378000 M⁻¹ s⁻¹
[2]
  Kd: 0.622 nM
  koff: 0.00022 s⁻¹
  kon: 353000 M⁻¹ s⁻¹
[3]
  Kd: 6.83 nM
  koff: 0.000299 s⁻¹
  kon: 43800 M⁻¹ s⁻¹
[4]
  Kd: 2.57 nM
  koff: 0.000145 s⁻¹
  kon: 56400 M⁻¹ s⁻¹
[5]
  binding result: no binding (tested: 1 μg/mL H3-1)
[6]
  binding result: binds
[7]
  Bet v 1-induced basophil activation (CD203c upregulation), blood of patient #12; Bet v 1 pre-incubated with H3-1 against control ScFv: ~5 fold
  Bet v 1-induced basophil activation (CD203c upregulation), blood of patient #14; Bet v 1 pre-incubated with H3-1 against control ScFv; augmentation, not reduction: ~5 fold
  Bet v 1-induced basophil activation (CD203c upregulation), blood of patient #22; Bet v 1 pre-incubated with H3-1 against control ScFv: ~25 fold
  Bet v 1-induced basophil activation (CD203c upregulation), blood of patient #26; Bet v 1 pre-incubated with H3-1 against control ScFv: ~5 fold
[8]
  mean % inhibition of patients' IgE binding: 11.9%
[9]
  mean % inhibition of patients' IgE binding: 24.3%
[10]
  mean % inhibition of patients' IgE binding: 13.5%
[11]
  % inhibition of IgE binding, patient 1: 8.2%
  % inhibition of IgE binding, patient 7: 6.3%
  % inhibition of IgE binding, patient 9: 15.3%
  % inhibition of IgE binding, patient 11: 22.5%
  % inhibition of IgE binding, patient 12: 14.5%
  % inhibition of IgE binding, patient 13: 11.4%
  % inhibition of IgE binding, patient 16: 16.3%
  % inhibition of IgE binding, patient 17: 25%
  % inhibition of IgE binding, patient 19: 16.5%
  % inhibition of IgE binding, patient 20: 6.9%
  % inhibition of IgE binding, patient 21: 13.4%
  % inhibition of IgE binding, patient 22: 37.1%
  % inhibition of IgE binding, patient 23: 6.2%
  % inhibition of IgE binding, patient 24: 12.9%
  % inhibition of IgE binding, patient 25: 17.5%
  % inhibition of IgE binding, patient 26: 23.7%
  % inhibition of IgE binding, patient 27: 26.1%
  % inhibition of IgE binding, patient 28: 26.1%
  % inhibition of IgE binding, patient 30: 10.7%
  mean % inhibition of patients' IgE binding: 13.2%
[12]
  % inhibition of IgE binding, patient 1: 60.9%
  % inhibition of IgE binding, patient 5: 27.6%
  % inhibition of IgE binding, patient 7: 42.2%
  % inhibition of IgE binding, patient 9: 52.8%
  % inhibition of IgE binding, patient 10: 41.7%
  % inhibition of IgE binding, patient 11: 51.3%
  % inhibition of IgE binding, patient 12: 61.4%
  % inhibition of IgE binding, patient 13: 50.5%
  % inhibition of IgE binding, patient 16: 49.2%
  % inhibition of IgE binding, patient 17: 51%
  % inhibition of IgE binding, patient 18: 57.4%
  % inhibition of IgE binding, patient 19: 54.6%
  % inhibition of IgE binding, patient 20: 15.8%
  % inhibition of IgE binding, patient 21: 44.9%
  % inhibition of IgE binding, patient 22: 62.9%
  % inhibition of IgE binding, patient 23: 47.3%
  % inhibition of IgE binding, patient 24: 44.3%
  % inhibition of IgE binding, patient 25: 62.9%
  % inhibition of IgE binding, patient 26: 50.6%
  % inhibition of IgE binding, patient 27: 62.1%
  % inhibition of IgE binding, patient 29: 38.8%
  % inhibition of IgE binding, patient 30: 56.8%
  mean % inhibition of patients' IgE binding: 45%
[13]
  % inhibition of IgE binding, patient 1: 32.7%
  % inhibition of IgE binding, patient 5: 29%
  % inhibition of IgE binding, patient 7: 19%
  % inhibition of IgE binding, patient 9: 48.9%
  % inhibition of IgE binding, patient 10: 8.6%
  % inhibition of IgE binding, patient 12: 44.9%
  % inhibition of IgE binding, patient 13: 35%
  % inhibition of IgE binding, patient 16: 18.4%
  % inhibition of IgE binding, patient 17: 43%
  % inhibition of IgE binding, patient 18: 40.9%
  % inhibition of IgE binding, patient 19: 33.6%
  % inhibition of IgE binding, patient 20: 33.9%
  % inhibition of IgE binding, patient 21: 6%
  % inhibition of IgE binding, patient 22: 53.7%
  % inhibition of IgE binding, patient 23: 21.1%
  % inhibition of IgE binding, patient 24: 36%
  % inhibition of IgE binding, patient 25: 57.6%
  % inhibition of IgE binding, patient 26: 22%
  % inhibition of IgE binding, patient 27: 31.2%
  % inhibition of IgE binding, patient 28: 45.1%
  % inhibition of IgE binding, patient 29: 39.6%
  % inhibition of IgE binding, patient 30: 29.5%
  mean % inhibition of patients' IgE binding: 29.1%
[14]
  % inhibition of IgE binding, patient 1: 8.6%
  % inhibition of IgE binding, patient 5: 3.6%
  % inhibition of IgE binding, patient 9: 10.9%
  % inhibition of IgE binding, patient 10: 10.5%
  % inhibition of IgE binding, patient 11: 19.1%
  % inhibition of IgE binding, patient 12: 22.4%
  % inhibition of IgE binding, patient 13: 27.4%
  % inhibition of IgE binding, patient 16: 2.3%
  % inhibition of IgE binding, patient 17: 40.5%
  % inhibition of IgE binding, patient 18: 17.1%
  % inhibition of IgE binding, patient 19: 15.3%
  % inhibition of IgE binding, patient 20: 16.5%
  % inhibition of IgE binding, patient 21: 11.9%
  % inhibition of IgE binding, patient 22: 26.3%
  % inhibition of IgE binding, patient 23: 3%
  % inhibition of IgE binding, patient 24: 19.3%
  % inhibition of IgE binding, patient 25: 17.9%
  % inhibition of IgE binding, patient 26: 19.7%
  % inhibition of IgE binding, patient 27: 27.4%
  % inhibition of IgE binding, patient 28: 8.2%
  % inhibition of IgE binding, patient 29: 22.5%
  mean % inhibition of patients' IgE binding: 16.1%
